The source of these data is publication PMC11511291, “Structures of the Varicella Zoster Virus Glycoprotein E and Epitope Mapping of Vaccine-Elicited Antibodies” (Vaccines, 2024).

The target of experiment [1] is T1, VZV glycoprotein E, full-length gE ectodomain (gE_FL) (Varicella-zoster virus; strain not …, UniProt P09259).
T1 construct: Varicella zoster virus glycoprotein E (gE), 'full-length gE ectodomain', includes the disordered N-terminal region (residues 1-115); The construct used in the HPLC-SEC binning is only called 'VZV gE'; also called FL gE; VZV gE; source: Expi293 cells, transfected, purified from culture supernatant (HisTrap, Superdex 200 SEC)
The experiment is described as follows: SEC; HPLC-SEC epitope binning: VZV gE mixed with primary Fab at mass ratio 1:3 for 10 min at room temperature, then with secondary Fab at the same ratio; Superdex 200 Increase 3.2/300. Conditions: both partners purified. Background: Size exclusion chromatography separates by hydrodynamic size, large species first.

In experiment [2] the target is T1, VZV glycoprotein E, full-length gE …. The experiment is described as follows: BLI; Octet Red96; Fabs loaded onto FAB2G biosensors (0.5 to 1.0 nm), gE as analyte at 25 nM to 1.6 nM; 1 x PBS with 1% BSA. Conditions: both partners purified. For orientation: BLI is a label-free optical method that tracks binding on a fibre tip over time.

T1 sequence (P09259 whole entry, looked up, the tested form may be a part): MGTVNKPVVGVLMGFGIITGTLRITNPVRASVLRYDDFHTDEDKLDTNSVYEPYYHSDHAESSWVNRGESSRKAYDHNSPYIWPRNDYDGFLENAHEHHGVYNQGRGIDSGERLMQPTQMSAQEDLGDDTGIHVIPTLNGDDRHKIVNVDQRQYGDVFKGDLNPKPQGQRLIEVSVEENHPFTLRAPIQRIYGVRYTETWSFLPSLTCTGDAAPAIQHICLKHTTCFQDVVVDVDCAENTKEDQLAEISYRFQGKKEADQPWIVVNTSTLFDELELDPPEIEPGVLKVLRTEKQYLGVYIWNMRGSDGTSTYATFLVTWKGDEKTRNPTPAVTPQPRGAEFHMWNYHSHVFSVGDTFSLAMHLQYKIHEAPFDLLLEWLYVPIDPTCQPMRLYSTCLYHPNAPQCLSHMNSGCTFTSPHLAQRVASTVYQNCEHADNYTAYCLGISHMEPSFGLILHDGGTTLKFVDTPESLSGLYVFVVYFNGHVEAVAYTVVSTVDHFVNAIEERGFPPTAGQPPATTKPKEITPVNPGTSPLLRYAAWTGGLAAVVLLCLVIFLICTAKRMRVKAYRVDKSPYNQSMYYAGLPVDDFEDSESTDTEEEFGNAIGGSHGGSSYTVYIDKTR

B1: Fab 1E8 (recombinant Fab of human anti-gE antibody 1E8, elicited by ZVL vaccination) (Fab, V domains shown)
VH: QVQLQESGPGLVRPSQTLSLTCTVSGGSITSGSFYWSWVRQSAGKGLEWIGRIFKTGSTTYKPSLKSRVTMSVDTSKNQFSLKLSSVTATDTAVYFCARAPFYNDFSGYSYYFDYWGQGTLVTVSS
VL: QSVLTQPPSASGTPGQRVTISCSGSSSDIGPNTVHWYRQVPGTAPTLLIYSDNQRPSGVPARFSGSRSGTSASLAISGLQSEDEAIYYCAAWDDSLNPLYVFGTGTKVTVL
notes: source: HEK293 Expi cells, transient, purified (StrepTrap HP, SEC)
Turning to B1, the binding result in experiment [1] is reported as “binds”.

B2: Fab 5A2 (recombinant Fab of human anti-gE antibody 5A2, elicited by ZVL vaccination) (Fab, V domains shown)
VH: QVQLQESGPGLVKPSETLSLTCIVSGGSISRYYWSWIRQPPGRGLEWIGNIYYTGTTNYNPSLQSRVTISLDTSKNQFSLRLTSVTAADTAVYYCARIGGVSFGERPIDYWGQGTLVTVSS
VL: DIQMTQSPSSLSASVGDRVTITCRASQTISTYLNWYQQKPGKAPKLLIYAASTLQSGVPSRFSGSGSGTDFTLTITSLQPEDFAAYYCQQSYSIPLTFGGGTKVEIK
notes: also called 5A2 Fab; source: HEK293 Expi cells, transient, purified (StrepTrap HP, SEC)
For B2, the binding result in experiment [2] is “binds”.

B3: Fab 1E3 (recombinant Fab of human anti-gE antibody 1E3, elicited by ZVL vaccination) (Fab, V domains shown)
VH: QVQLQESGPGLVKPSQTLSLTCTVSGGSISSNDYYWTWIRQSPGKGLEWIGFISYNGDTYYNPSLKRRGTISVDTSKIQFSLRLSSVTAADTAVYYCARVRTSSTTSYYFDYWGQGTLVTVSS
VL: DIQMTQSPSSLSASVGDRVTITCRASQGIRNYLNWYQQKPGKAPMLLIYGASSLQNGVPSRFSGSGSGTEFTLTISSLQPEDFATYYCQQSYRTLTFGPGTKVDIK
notes: also called 1E3 Fab; source: HEK293 Expi cells, transient, purified (StrepTrap HP, SEC)
As to B3, in experiment [2], the binding result is recorded as “binds”.

B4: Fab 1A2 (recombinant Fab of human anti-gE antibody 1A2, elicited by ZVL vaccination) (Fab, V domains shown)
VH: EVQLVQSGAEMKKPGASVKVSCKTSGYVFNEYYIHWVRQAPGQGLEWLGRINPNSGDANYAPKFQGRVTLTRDTSIRTYFMELNRLRSDDTAVYYCARIMYFEYDSWSDYWGQGTLVTVSS
VL: DIQMTQSPSSLSASVGDRVTITCRASQSIRSNLNWYQQKPGKAPNVLIYATSSLQSGVPSRFSGSGSGTDFTLTIRSLQPEDFATYYCQQSYSLPWTFGQGTKVEIK
notes: as for B1
Take B4: the binding result in experiment [2] was “binds”.
